The record followed here is patent publication US20230372419A1, “LIVE BIOTHERAPEUTICS SECRETING SYNTHETIC BACTERIOPHAGES IN THE TREATMENT OF CANCER” (TATUM BIOSCIENCE INC., priority 2020, published 2023).

Assay [1] deals with T1, mice CTLA-4 recombinant protein (R&D systems) (mice, UniProt P09793 36-161).
T1 construct: Coated on ELISA plates at 10 µg/mL; also called recombinant CTLA-4 protein; CTLA-4 immune checkpoint
Put plainly: ELISA on coated mouse CTLA-4, detection with anti-pVIII-HRP.

The target in assay [2] is T2, PD-L1 on the surface of A20 cells (mouse (A20 mouse lymphoma cells), UniProt Q9EP73 19-290).
T2 construct: whole, on cells; also called PD-L1 receptor; CD274
T2 sequence (Q9EP73 19-290): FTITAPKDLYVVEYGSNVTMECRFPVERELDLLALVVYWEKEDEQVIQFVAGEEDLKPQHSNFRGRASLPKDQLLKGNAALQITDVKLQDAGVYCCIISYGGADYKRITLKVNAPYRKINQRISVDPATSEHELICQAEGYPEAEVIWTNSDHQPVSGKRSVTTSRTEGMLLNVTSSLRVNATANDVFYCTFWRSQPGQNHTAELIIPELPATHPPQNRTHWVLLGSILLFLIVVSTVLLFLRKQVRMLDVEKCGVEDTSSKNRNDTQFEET
Put plainly: ELISA on fixed A20 cells, detection with anti-HA-HRP.

The target in assay [3] is T2, PD-L1 on the surface of A20 cells. Put plainly: flow cytometry on A20 cells, competition with anti-PD-L1-PE (10F.9G2).
The next assay addresses T3, PD-L1 on A20 cells (Mus musculus, UniProt Q9EP73).
T3 construct: host or cells: A20 mouse B lymphoma cells (live for flow cytometry, formalin-fixed for ELISA)
Put plainly: Binding to PD-L1 on fixed A20 cells by ELISA. Particulars: nanobody 1 nM to 10 μM, detection anti-HA-HRP. As for the experimental part: Assessment of anti-PD-L1 displaying bacteriophages binding activity on A20 cells by EUSA. A 96 wells plate was prepared by adding in each well 100 μL of PBS comprising 1×10^5 A20 cells. The plate was then incubated 30 min to allow sedimentation of the cells. The plate was then tilted and the PBS was carefully removed. To fix the cells to the plate, 100 μL of 10% formalin was then added, and the plate was incubated for 10 min. The fixed cells were then washed gently with 100 μL of PBS and then blocked by adding 200 μL of PBS (1% BSA, 3% milk), followed a 30 min incubation periode. The blocking buffer was removed and then 100 μL of bacteriophage PEG preparation was added to the wells. The plate was incubated 1 h and then washed three times with 200 μL of PBS. To detect the bacteriophages, 100 μL of anti-HA-HRP (Cell Signaling) 1/500 diluted in PBS (3% milk, 1% BSA) was added and the plate was incubated for 1 h. […] Then, 100 μL from each well was transferred to a new plate and optical density was measured at 450 nm.
Assessment of anti-PD-L1 nanobody binding activity on A20 cells by EISA. […] Then, 100 μL from each well was transferred to a new plate and optical density was measured at 450 nm. […] Tumor sizes were then monitored twice a week using a precise caliper until tumors exceed 1500 mm^3 or until day 24 after the first injection. […]

Assay [4] concerns the target T4, CD47 on the surface of A20 mouse lymphoma cells (mouse (A20 mouse lymphoma cells), UniProt Q61735 19-303).
T4 construct: whole, on cells; also called CD47 receptor; CD47 immune checkpoint
T4 sequence (looked up): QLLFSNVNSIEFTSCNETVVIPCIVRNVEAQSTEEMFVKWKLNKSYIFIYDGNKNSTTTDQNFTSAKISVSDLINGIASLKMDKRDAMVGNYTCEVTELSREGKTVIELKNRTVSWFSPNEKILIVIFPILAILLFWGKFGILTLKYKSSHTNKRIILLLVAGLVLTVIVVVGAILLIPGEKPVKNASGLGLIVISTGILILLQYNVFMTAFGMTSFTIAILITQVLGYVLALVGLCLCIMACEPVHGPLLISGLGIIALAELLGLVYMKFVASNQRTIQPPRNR
Description: pull-down assay on A20 cells.

T3 sequence (Q9EP73 19-290): as the sequence (Q9EP73 19-290) above

B1: synthetic bacteriophage displaying an anti-CTLA-4 anticalin on pIII (MG1655+pTAT004+pTAT030) (other)
chain: QDSTSDLIPAPPLSKVPLQQNFQDNQFHGKWYVVGLAGNRILRDDQHPMNMYATIYELKEDKSYNVTSVISSHKKCEYTIATFVPGSQPGEFTLGNIKSYGDKTSYLVRVVSTDYNQYAMVFFKLAEDNAEFFAITIYGRTKELASELKENFIRFSKSLGLPENHIVFPVPIDQCIDG
notes: Whole phage particle; not shown: HA-6His dual tag linker; C-terminal fragment of coat protein pIII (gpIII-C) of bacteriophage M13
Regarding B1, the binding result in assay [1] was “binds”.

B2: purified anti-PD-L1 nanobody with hexahistidine and HA tags fused in C-terminal (VHH)
VHH: QVQLVETGGGLVQPGGSLRLSCTASGFTFSMHAMTWYRQAPGKQRELVAVITSHGDRANYTDSVRGRFTISRDNTKNMVYLQMNSLKPEDTAVYYCNVPRYDSWGQGTQVTVSS
notes: Expressed from the pTrcHis vector in E. coli BL21 (DE3), purified on Ni-NTA; also called nbPDL1 (pTAT034); not shown: hexahistidine and HA tags fused in C-terminal
Take B2: in assay [2], the binding result was “binds”.

B3: synthetic bacteriophage displaying an anti-PD-L1 nanobody on pIII (MG1655+pTAT004+pTAT020) (other)
chain: QVQLVETGGGLVQPGGSLRLSCTASGFTFSMHAMTWYRQAPGKQRELVAVITSHGDRANYTDSVRGRFTISRDNTKNMVYLQMNSLKPEDTAVYYCNVPRYDSWGQGTQVTVSSGGLPETGG
notes: Whole phage particle; also called anti-PD-L1 synthetic bacteriophage; not shown: HA-6His dual tag linker; C-terminal fragment of coat protein pIII (gpIII-C) of bacteriophage M13
Regarding B3, the binding result in assay [3] is reported as “binds”.

B4: synthetic bacteriophage displaying the anti-PD-L1 nanobody inserted between the binding domain and the bacteriophage anchor domain of pIII (MG1655+pTAT033) (other)
chain: QVQLVETGGGLVQPGGSLRLSCTASGFTFSMHAMTWYRQAPGKQRELVAVITSHGDRANYTDSVRGRFTISRDNTKNMVYLQMNSLKPEDTAVYYCNVPRYDSWGQGTQVTVSSGGLPETGG
notes: Single-vector system derived from M13mp18-Kan; whole phage particle, remained infectious; also called anti-PD-L1 nanobody inserted in pIII; not shown: N-terminal part of pIII (D1/D2 domains) of bacteriophage M13; C-terminal part of pIII (gpIII-C, transmembrane region / anchor domain) of bacteriophage M13
Turning to B4, the binding result in assay [3] is reported as “binds”.

B5: purified anti-PD-L1 nanobody: purified anti-PD-L1 nanobody with hexahistidine and HA tags, expressed in BL21 (DE3) (protein)
VHH: QVQLVETGGGLVQPGGSLRLSCTASGFTFSMHAMTWYRQAPGKQRELVAVITSHGDRANYTDSVRGRFTISRDNTKNMVYLQMNSLKPEDTAVYYCNVPRYDSWGQGTQVTVSSGGLPETGG
modifications: left off: small tags and cut ends
As for B5, the “purified nanobody binding activity on A20 cells (ELISA)” value in the assay with PD-L1 on A20 cells is “confirmed its binding activity on A20 cells”.

B6: synthetic bacteriophage displaying the anti-PD-L1 nanobody at the N-terminal end of pIII (MG1655+pTAT032) (other)
chain: QVQLVETGGGLVQPGGSLRLSCTASGFTFSMHAMTWYRQAPGKQRELVAVITSHGDRANYTDSVRGRFTISRDNTKNMVYLQMNSLKPEDTAVYYCNVPRYDSWGQGTQVTVSSGGLPETGG
notes: Single-vector system derived from M13mp18-Kan; also called pTAT32; anti-PD-L1 nanobody on pIII; not shown: C-terminal fragment of coat protein pIII (gpIII-C) of bacteriophage M13
B6: in assay [3], the binding result is “binds”.

B7: synthetic bacteriophage displaying an anti-CD47 nanobody on pIII (MG1655+pTAT004+pTAT003) (other, not shown: small tags and cut ends; large carriers)
chain: QVQLVESGGGLVEPGGSLRLSCAASGIIFKINDMGWYRQAPGKRREWVAASTGGDEAIYRDSVKDRFTISRDAKNSVFLQMNSLKPEDTAVYYCTAVISTDRDGTEWRRYWGQGTQVTVSSGGLPETGG
notes: also called pTAT003 derived bacteriophages; nbCD47-pIII bacteriophages
As to B7, the binding result in assay [4] is reported as “binds”.
